Assay results: article PMC4654587

What was measured:
[1] = biological target: His6-CsuA/B (N-terminal donor strand sequence replaced by a His6-tag); settings: parent: est. 1.0; read off a plot
[2] = biological target: His-tagged EcpB (wild type) (Escherichia coli) (UniProt P77188); experiment: SEC

Substance	ratio to parent [1]	stoichiometry N [2]
CsuC (wild type, without tag) R89A	0.15	–
CsuC (wild type, without tag) R89A; Y196F	0.02	–
CsuC (wild type, without tag) R174A	0.5	–
CsuC (wild type, without tag) Y196F	0.13	–
EcpA with a Trp11Ala mutation (from UniProt P0AAA3 23-195) (natural protein)	–	1
